Results taken from the supplement of paper PMC10266784.

B1: library; numbered along this chain (parent)
chain: MAAAAAAAAEQQSSNGPVKKSMREKAVERRSVNKEHNSNFKAGYIPIDEDRLHKTGLRGRKGNLAICVIILLFILAVINLIITLVIWAVIRIGPNGCDSMEFHESGLLRFKQVSDMGVIHPLYKSTVGGRRNENLVITGNNQPIVFQQGTTKLSVENNKTSITSDIGMQFFDPRTQNILFSTDYETHEFHLPSGVKSLNVQKASTERITSNATSDLNIKVDGRAIVRGNEGVFIMGKTIEFHMGGNMELKAENSIILNGSVMVSTTRLPSSSSGDQLGSGDWVRYKLCMCADGTLFKVQVTSQNMGCQISDNPCGNTH

Variants of: B1
Experiment: SGCB cell-surface expression functional score (HA stain, bin4 vs bin1, normalised to synonymous) (log10 ratio); higher = more cell-surface SGCB (functional)
How it was run: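 Codon-saturation libraries of HA-tagged, YFP-fused human beta-sarcoglycan were lentivirally transduced at MOI <0.1 into HEK293 cells stably expressing alpha-, gamma- and delta-sarcoglycan. YFP-positive cells were sorted after 72 hours, grown 5–7 days, stained on ice with Alexa Fluor 647 anti-HA, fixed, sorted into four 5% intensity bins and amplicon-sequenced. The functional score is the log ratio of highest-bin to lowest-bin variant frequency, taken as the median over codons and duplicate transductions. Synonymous variants were scaled per section to mean 0, SD 0.5.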

SGCB cell-surface expression functional score (log10), by site and new letter:
R207: L -0.39, W -0.06, F -1.57, A -1.05, I -1.03, Q -0.74, G -1.44
K202: S 0.02, N -0.53, R 0.09, F -1.04, M 0.2, W -0.14, L 0.04, A -0.2, G -0.02, E -0.96, Q 0.17, T 0.12, P -0.97, Y -0.69, V -0.17, H -1.29, I -0.27, C -0.1, D -1.97
L198: E -2.32, Q -1.42, W -0.6, Y -1.67, C -0.88, A -1.81, G -1.98, F 0.25, K -1.58, N -1.95, V -0.55, R -2.21, P -1.18, M -0.81, D -2.43, I -0.47, H -0.37, T -2.13, S -1.39
Q201: F 0.62, Y -0.31, G 0.18, N -0.7, E 0.21, I 0.46, S -0.35, T -0.09, L -0.33, R 0.39, A 0.62, H 0.31, W -0.32, D -0.56, K 0.07, C 0.43, V 0.47, M 1.02, P -0.23
E206: S 0.16, V 0.45, N 0.66, R -0.66, G -0.37, A 1.04, K -0.41, T 0.4, Y -0.12, C -0.71, I -0.47, P -0.42, Q -0.93, M 1.59, W 0.91, H 0.42, L -0.27, D 0.33, F 0.19
S197: P -2.03, G -0.19, C 0.14, I -0.04, N -0.61, W 0.4, T -0.2, Q 0.43, D -0.76, E -0.43, A -0.6, F -2.04, L 0.24, Y -1.16, K -0.3, V 1.76, R -0.6, H -0.72, M -1.08
T205: D -1.46, N -1.69, V -0.05, H -0.99, M -0.07, L -0.11, S -0.16, P -0.48, F -0.9, K -2.61, A -0.17, C -0.21, R -1.93, E -0.93, Q -2.06, G -1.7, I -0.16, Y -1.37, W -2.65
G194: F -0.14, W 0.23, L -1.02, R -0.07, N 0.05, Q 0.38, V -1.31, M -1.78, A -0.67, E -0.09, C -0.15, T -0.71, S 0.34, D 0.64, H 0.27, K 0.01, P -0.58, I -1.66, Y -1.13
S204: P -0.83, F -0.03, A -0.04, C -0.16, Y -0.38, T -0.17
L191: Y -1.61, W -0.06, V -0.49, T -1.31
T209: I -0.34, H -0.13, Y -0.71, A -0.04, Q -0.66, V 0.51, S 0.1, L -0.72, C -1.07, M 0.74, R -0.83, P -0.71, F -0.85, W -0.85, D -1.17, K -1.12, N -0.52
